This is an account of results in publication PMC10778931, “Structure–Functional Examination of Novel Ribonucleoside Hydrolase C (RihC) from Limosilactobacillus reuteri LR1” (International Journal of Molecular Sciences, 2023).

Substrate in the data set “purified protein”: Nc1ccn([C@@H]2O[C@H](CO)[C@@H](O)[C@H]2O)c(=O)n1
The data set can be described thus: purified protein. Particulars: Tris-HCl pH 7.5.

Substrate in data set [1]: Nc1ncnc2c1ncn2[C@@H]1O[C@H](CO)[C@@H](O)[C@H]1O
The data set can be described thus: HILIC-HPLC of released nucleobase, Michaelis-Menten fit. Type of data set: biochemical, Limosilactobacillus reuteri. Particulars: Tris-HCl pH 7.5. The text has this:
(§1) HILIC-HPLC of released nucleobase, Michaelis-Menten fit on LreRihC_HisC

Substrate in data set [2]: O=c1[nH]c(=O)c2ncn([C@@H]3O[C@H](CO)[C@@H](O)[C@H]3O)c2[nH]1
Described as above. Particulars: Tris-HCl pH 7.5. It counts as biochemical, Limosilactobacillus reuteri.
Text: as §1

Substrate in data set [3]: OC[C@H]1O[C@@H](n2cnc3c(O)ncnc32)[C@H](O)[C@@H]1O
Described as above. It counts as biochemical, Limosilactobacillus reuteri. Particulars: Tris-HCl pH 7.5.
Text: as §1

Data set [4] deals with the molecule itself. As to the kind of experiment: SEC; analytical gel filtration on HiLoad 16/600 Superdex 200 pg, 1 mg of sample applied, mass read from a calibration curve (Gel Filtration Calibration Kit HMW). Background: Size exclusion chromatography separates by hydrodynamic size, large species first.
Substrate in data set [5]: Nc1ncnc2c1ncn2[C@@H]1O[C@H](CO)[C@@H](O)[C@H]1O
As to the kind of experiment: HILIC-HPLC of released nucleobase, Michaelis-Menten fit. Type of data set: biochemical, Limosilactobacillus reuteri. Particulars: Tris-HCl pH 7.5. From the text:
(§2) HILIC-HPLC of released nucleobase, Michaelis-Menten fit on LreRihC_HisN
This is another data set of the same source.

Substrate in data set [6]: O=c1[nH]c(=O)c2ncn([C@@H]3O[C@H](CO)[C@@H](O)[C@H]3O)c2[nH]1
The description is as above. Type of data set: biochemical, Limosilactobacillus reuteri. The conditions noted are these: Tris-HCl pH 7.5.
Text: as §2
This is another data set of the same source.

Substrate in data set [7]: O=c1ccn([C@@H]2O[C@H](CO)[C@@H](O)[C@H]2O)c(=O)[nH]1
The data set is described as above. Type of data set: biochemical, Limosilactobacillus reuteri. Particulars: Tris-HCl pH 7.5.
Text: as §2

Substrate in data set [8]: OC[C@H]1O[C@@H](n2cnc3c(O)ncnc32)[C@H](O)[C@@H]1O
Described as above. Type of data set: biochemical, Limosilactobacillus reuteri. Particulars: Tris-HCl pH 7.5.
Text: as §2
The source holds these as a separate data set.

B1: LreRihC_HisC (Limosilactobacillus reuteri) (protein)
chain: MTTKIIMDTDPGIDDAAALTMAINDPSLDLKLVTTVAGNVTADKTTANALKIIHFFGKDIPVAAGAKQPLIKPFEDAARIHGESGMPGYDFGDDYGKPLDKTAVEALHDAIMAEDEVILVPTGSYTNIALLFSEYPEVKSHIKQIVAMGGSFSGGNMTSAAEFNVFTDPDAAKIMYNAGVPIVTVGLDVTLKALLTADTIEKLGSLNKTGEMLHGLITHYNDGNDQGRPMHDVNTIFYLLHPEAFTTKDMWVDIQTDGPAIGATVGDIRAAYHDGKTNAKVCLDIDAEYFNKWFLEEVSKMK
notes: E. coli BL21(DE3), pET24a(+); tetramer (123 kDa)
For orientation: Km means the substrate concentration at which the rate is half of its maximum. The kcat is the number of substrate molecules converted per active site and unit of time at saturation. On to B1, for which the Michaelis-Menten constant (Km) was determined as 620 ± 60 µM in the data set “purified protein”, 480 ± 90 µM in data set [1], 1300 ± 200 µM in data set [2] and 2600 ± 600 µM in [3]. The kcat is 58 ± 6 s⁻¹ in the data set “purified protein”, 65 ± 7 s⁻¹ in data set [1], 40 ± 6 s⁻¹ in data set [2] and 18 ± 6 s⁻¹ in [3].

B2: ribonucleoside hydrolase C from Limosilactobacillus reuteri LR1 with the addition of His-tag to the C-terminus of the enzyme (enzyme, UniProt A5JJT3 1-302, looked up)
chain: B1 chain
notes: 308 residues and 33.38 kDa with the His-tag; PDB 8QND is the structure of the N-terminally tagged form of the same protein; source: E. coli BL21(DE3), purified (HisTrap FF, desalted on Sephadex G25); not shown: His6, C-terminal, kept
The stoichiometry N is the number of molecules, sites or subunits per partner or assembly. For the protein B2, the “stoichiometry N” value in data set [4] was 4.

B3: ribonucleoside hydrolase C from Limosilactobacillus reuteri LR1 with the addition of His-tag to the N-terminus of the enzyme (enzyme, UniProt A5JJT3 1-302, looked up)
chain: B1 chain
notes: Ribonucleoside hydrolase C (RihC) of Limosilactobacillus reuteri LR1, cloned from genomic DNA with primers from the start codon to the stop codon; 308 residues and 33.38 kDa with the His-tag; The residue numbers printed for the crystal structure (D16, D20, D21, loop DGNDQ 228-232) seem to count on the tagged construct (surmised from the primer); Each subunit holds one Ca2+ ion; source: E. coli …
As to B3, the “stoichiometry N” value in data set [4] worked out at 4.

B4: LreRihC_HisN (Limosilactobacillus reuteri) (protein)
chain: TTKIIMDTDPGIDDAAALTMAINDPSLDLKLVTTVAGNVTADKTTANALKIIHFFGKDIPVAAGAKQPLIKPFEDAARIHGESGMPGYDFGDDYGKPLDKTAVEALHDAIMAEDEVILVPTGSYTNIALLFSEYPEVKSHIKQIVAMGGSFSGGNMTSAAEFNVFTDPDAAKIMYNAGVPIVTVGLDVTLKALLTADTIEKLGSLNKTGEMLHGLITHYNDGNDQGRPMHDVNTIFYLLHPEAFTTKDMWVDIQTDGPAIGATVGDIRAAYHDGKTNAKVCLDIDAEYFNKWFLEEVSKMK
notes: E. coli BL21(DE3), pET24a(+); tetramer (121 kDa)
Turning to B4, the Km in the data set “purified protein” is given as 680 ± 80 µM; in [5] it was 420 ± 50 µM; in [6], 1200 ± 200 µM; in data set [7] it was 320 ± 40 µM; in data set [8], 2500 ± 600 µM. For the same protein, the kcat came to 112 ± 4 s⁻¹ in “purified protein”; 118 ± 4 s⁻¹ in data set [5]; 57 ± 8 s⁻¹ in data set [6]; 167 ± 6 s⁻¹ in data set [7]; 30 ± 5 s⁻¹ in data set [8].
